The nanobody polyreactivity screen of Harvey et al. (2022)

Test: yeast display, Sf9 membrane polyspecificity reagent, FACS + sequencing; frameworks hold sequencing errors
In short: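 A synthetic nanobody library was expressed on Saccharomyces cerevisiae BJ5465 by galactose induction for 36–48 hours. The library was stained for 1 hour at 4 °C with 10% biotinylated, detergent-solubilized Sf9 membrane reagent and enriched with streptavidin microbeads before FACS. Low and high (top ~1%) gates were set on anti-HA fluorescence for expression and streptavidin fluorescence for reagent binding, and each polyreactivity label reflects the gate of origin.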

Sequence | polyreactivity (PSR sort gate)
QVQLVESGGGLVQAGGSLRLSCAASGRTFSQYAMGWYRQAPGKERELVAAISWSGDSTYYADSVKGRFTISRDNAKNTVYLQMNSLKPEDTAVYDCAADRRVETPRYDYWGQGTQVTVSS | low polyreactivity
QVQLVESGGGLVQAGGSLRVSCAASGFTFTRYTMGWYRQAPGKEWELVAAITRSGGNTYYADSVKGRFTISRDNAKNTVYLQMNSLKPEDTAVYYCAARQVSGIGPYDYWGQGTQVTVSS | high polyreactivity
QVQLVESGGGLVQAGGSLRLSCPASGTTIVSNAMGWYRQAPGKERDLVAAISSSGGRTSYADSVKGRFTISRDNAKNTVSLQMNSLKPEDTAVYYCAADHPPGDTYEYWGQGTQVSVSS | low polyreactivity
QVQLQEIVGGLVQAGGSLRLSCAASGNNFDADIMGLYRQAPGKERELVASVTDGGSTNYADSVKGRFTISRDNAKNSVYLQMNILKPEDTAVYYCAAIVYPDILTYFDYDYDYFYWGQGTQVTVGS | low polyreactivity
QVQLVESGGDLVQAGGSLRLSCAASGRTFSANGMGWYRQAPGKERELVAAITRSGGITYYADSVKGRFTISRDNAKNTVYLQMNSLKPEDTAVYYCAASVYSLSRRSWMDYWGQGTQVTVSS | low polyreactivity
QVQLVDSGGGLVQAGGSLRLSCAASGRTFHKYAMGWYRQAPGKERELVAAISNGGRTYYADSVKGRFTISRDNAKNTLYLQMNSLKPEDTAVYYCNADRTWKGRQYDYWGQGTQVTVSS | high polyreactivity
QVQLVESGGGLVQAGGSLRLSCAASGSTFQGYAMGWYRQAPGKEREFVAAISRSGGRTYYADSVKGRFTISRDNAKNTVYLQMNSLKPEDTAVYYCAALPYWEYGYWGQGTQVTVSS | high polyreactivity
QGQLVESGGGLVQAGGSLRLSCAASGLTFYYYARGWYRQAPGKERELVATISSRGGSTNYADSVKGRFTISRDNAKNTVYLQMNSLKPEDTAVYYCATDNSGYPRLNYWGQGTHVTVSS | high polyreactivity
QVQLVESGGGLVQAGGSLRLSCAASGSIFEAYAMGWYRQAPGKERELVAAITQSGGSTYYADSVKGRFTISRDNAKNTVYLQMNSLKPEDTAVYYCAADFKYRGPSGDYDYWGQGTQVTVSS | low polyreactivity
QVQLVESGGGLVQAAGSLRLSCAASGNIFVRYVMGWYRQAPGKERELVAAITTSGGSTRYADSVKGRFTISRDNAKNSVYLQMNSLKPEDTAVYYCAARFRYRHLTYGYWGQGTQVTVSS | high polyreactivity
QVQLVESGGGLVQAGGSLRLSCAASGSTFDAYAMGWSRQAPGKERELVAAMTNAGSTNYADSVKGRFTISRDNAKNTVYLQMNSLKPEDTAVYYCATDWYHRYLDGRYDYLGQGTQVTVSS | low polyreactivity
QVQLVESGAGLVQAGGSLRLTCAASGSTFYRYAMGWYREAPGKERELVAAINTGGSTNYADSVKGRFTISRDNAKNTVYLQMYSMKPEDTAVYYCAARFQYYRKYDYWGQGTQVTVSS | low polyreactivity
QVQLVESGGGLVQAGGSLLLSCAASGIIFTRYVMGWYRQAPGKERELVATIRIGGSTTYADSVKGRFTISRDNAKITVYLQMYSLKPEDTAVYYCAADTWYITTYGGAGSYAYGFYYWGQGTQVTVSS | low polyreactivity
QVQLVESGGGLVQAGGSLRLSSAASGGTFGFNAMGWYRQAPGKERELVSGISSRGGSTYYADSVKGRFTISRDYAKNTVYLQMNSLKPEDTAVYYCNARQYPGRSWYRYDYWGQGTQVTVSS | high polyreactivity
QVQLVESGGGLVQAGGSLRLSCAASGRTFRAYAMGWYRQAPGKERELVAGITSGGSTNYADSVKGRFTISRDNAKNTVYLQMNSLKPEDTAVYYCAAKTHSRTKVYTADYWGQGTQVTVSS | high polyreactivity
QVQLVESGGGLFQAGGSLRLSCADSGRIFTSNAMGWYRQATGKVRELVAVISRRGGSTYYADSVKGRFTISRDNAKNTVYLQMNSLKPEDTAVYYCNARVYWYYPMDYWGQGTQVTVSS | low polyreactivity

Sequence | polyreactivity (PSR sort gate)
QVQLVESGGGLVQAGGSLRLSCAASGFTISFYAMGWYRQAPGKERELVAAITWNGGNTYYADSVKGRFTISRDNAKNTVYLQMNSLKPEDTAVYYCNKDSYYYHFDYWGQGTQVTVSS | high polyreactivity
QVQLVESGGGLVQAGGSLRLSCAASGSIFPQNAMGWYRQAPGKERELVASITSRGGITNYADSVKGRFTISRDNAKNTVYLQMNSLKPEDSAVYYCAADLYIYPYDYWGQGTQVTVSS | low polyreactivity
QVKLVESGGGLVQAGGSLRLSCAASARIFAQYDMGWYRQEPGKEREFVAAISGGGSSKYYADSVKGRFTISRDNAKNTGYLQMNSLKPEDTAVYYCAAYGRYPSWYAPGNEYWGQGTQVTVSS | low polyreactivity
QVQLVESGGGLVQAGGSLRLSCAACGSIFNYYTMGWYRTAPGKERELVADISWSGGSTYYADSVKGRFTISRDNAKNTVYLQMNSLKPEETAVYYCAADFGLFPYVGTGYYYWGQGTQVTVSS | low polyreactivity
QVQLVESGGGLVQAGCSLRLSCAASGFIFVFNAMGWYRQAPGKERELVAAINGGDITNYADSVKGRFTISRDNAKNTVYLQMNSMKPEDTAVYYCNADGYYFLISNANTLGYWGQGTQVNVSS | low polyreactivity
QVQLVESGGGLVQAGGSLRLSCAASGSIFAGYAMGWYRQAPGKERELVAAISSSGSRTYYADSVKGRFTISRDNAKNTVYLHMNSLKPEDTAVYYCATQSWVRYGQPEFDYWGQGTQVTVSS | high polyreactivity
QVQLVESGGGLVQAGGSLRLSCAASGSIFPPYVMGWYRPAPGKERELVAAINYIGDSTYADSVKGRFTISRDNAKNTVYLQINSLKPEDTAVYYCAAELWSGGVYSGFEEYWGQGTQVTVSS | high polyreactivity
QVQLVESGGGLVQAGGSLRLSCAASGRIFADNAMGWYRQAPGKERELVADITYSGGSTYYADSVKGRFTISRDNAKNTVYLQMNSLKPEDTAVYSCAKQGVDYWGQGTQVTVSS | low polyreactivity
QVQLVESGGGIVQAGGSLRLSCAASGITFTVYAMGWYRQAPGKERELVAAITSTGSTNYADSVKGRFTISRDNAKNTVYLQMISLKPEDTAVYYCAADRQITVYAYDYWGHGTQVTVSS | low polyreactivity
QVQLVESGGGLVQAGGSLRLSCAASGITSGTYAMGWYRQAPGKERELVAGISRSVTRTYYADSVKGRFTISRDNAKNTVYLQMNSLKPEDTAVYYCNTYVVRRPGYGYWGQGTQVTVSS | high polyreactivity
QVQLVESGGGLVQAGGSLRLSCAASGRIFYYYAMGLYRQAPGKERELVAAISGSGGTTYNADSVKGRITISRDHAKNTVYLQMNSLKPEDTAVYYCAEVQYRYAREYYYWGQCTQVTVSS | high polyreactivity
QVQLVESGGGLVQAGGSLRLSCSASGRIFGRYAMGWYRQAPGKERELVAAISASGGSTYYADSVKGRFTISRDNAKNTVYLQMNSLKPEDTAVYYCAADAPAEYYWGQGTQVSVSS | low polyreactivity
QVQLLESGGGLVQAGGSLRLSCAASGSIFNRYAMGWYRQAPGKERELVAAISSTGSTYYADSVKGRFTISRDNAKNTVYLQMNSLKPEDTAVYYCNAEATHDWLRVDTYEDWGQGTQVTVSS | low polyreactivity
QVQLVESGGGLFQAGGTLRLSCAATGITFRWYAMGWYRQAPGKEMELVAAITYRGGSTHYSDSVKGRFTISRDNAKNTVYLQMNSLKPEDTAVYYCAVRRWPRYRWSDYWGQGTQVTLSS | low polyreactivity
QVQLVESGGGLVQAGGSLRLSCAASGSIFDPYAMGWYRQAPGKERELVAAINGGSGSTFYADSVKGRFTISRDNAKNTVNLQMNSLKPEDTAVYYCAAKIWRYSPSYYPEPRGDYWGQGTQVTVSS | low polyreactivity
QVQLVESGGGLVQAGGSLRLSCAASGRIFVDNAMGWYRQAPGKERELVATITSTGSTNYADSVKGRFTISRDNAKYTVYLQMNSLKPEDTAVYYCNADGKLQDYDYWGQGTQVTVSS | high polyreactivity
